This series deals with the molecule itself. Put plainly: cryo-EM structure.

What is called stoichiometry N is a count of units in the complex or per binding partner.

B1: AND-1 (natural protein, H. sapiens, UniProt O75717 1-1129, looked up)
chain: MPATRKPMRYGHTEGHTEVCFDDSGSFIVTCGSDGDVRIWEDLDDDDPKFINVGEKAYSCALKSGKLVTAVSNNTIQVHTFPEGVPDGILTRFTTNANHVVFNGDGTKIAAGSSDFLVKIVDVMDSSQQKTFRGHDAPVLSLSFDPKDIFLASASCDGSVRVWQISDQTCAISWPLLQKCNDVINAKSICRLAWQPKSGKLLAIPVEKSVKLYRRESWSHQFDLSDNFISQTLNIVTWSPCGQYLAAGSINGLIIVWNVETKDCMERVKHEKGYAICGLAWHPTCGRISYTDAEGNLGLLENVCDPSGKTSSSKVSSRVEKDYNDLFDGDDMSNAGDFLNDNAVEIPSFSKGIINDDEDDEDLMMASGRPRQRSHILEDDENSVDISMLKTGSSLLKEEEEDGQEGSIHNLPLVTSQRPFYDGPMPTPRQKPFQSGSTPLHLTHRFMVWNSIGIIRCYNDEQDNAIDVEFHDTSIHHATHLSNTLNYTIADLSHEAILLACESTDELASKLHCLHFSSWDSSKEWIIDLPQNEDIEAICLGQGWAAAATSALLLRLFTIGGVQKEVFSLAGPVVSMAGHGEQLFIVYHRGTGFDGDQCLGVQLLELGKKKKQILHGDPLPLTRKSYLAWIGFSAEGTPCYVDSEGIVRMLNRGLGNTWTPICNTREHCKGKSDHYWVVGIHENPQQLRCIPCKGSRFPPTLPRPAVAILSFKLPYCQIATEKGQMEEQFWRSVIFHNHLDYLAKNGYEYEESTKNQATKEQQELLMKMLALSCKLEREFRCVELADLMTQNAVNLAIKYASRSRKLILAQKLSELAVEKAAELTATQVEEEEEEEDFRKKLNAGYSNTATEWSQPRFRNQVEEDAEDSGEADDEEKPEIHKPGQNSFSKSTNSSDVSAKSGAVTFSSQGRVNPFKVSASSKEPAMSMNSARSTNILDNMGKSSKKSTALSRTTNNEKSPIIKPLIPKPKPKQASAASYFQKRNSQTNKTEEVKEENLKNVLSETPAICPPQNTENQRPKTGFQMWLEENRSNILSDNPDFSDEADIIKEGMIRFRVLSTEERKVWANKAKGETASEGTEAKKRKRVVDESDETENQEEKAKENLNLSKKQKPLDFSTNQKLSAFAFKQE
B1: the “stoichiometry N” value is 3.

Values taken from paper doi:10.1101/2025.04.04.647053 (bioRxiv, 2025).
